Source: PMC2119167 (The Journal of Experimental Medicine, 1992)

Target: the molecule itself
Experiment: SEC

B1: platelet membrane GMP-140 (P-selectin) (natural protein)
chain: WTYHYSTKAYSWNISRKYCQNRYTDLVAIQNKNEIDYLNKVLPYYSSYYWIGIRKNNKTWTWVGTKKALTNEAENWADNEPNNKRNNEDCVEIYIKSPSAPGKWNDEHCLKKKHALCYTASCQDMSCSKQGECLETIGNYTCSCYPGFYGPECEYVRECGELELPQHVLMNCSHPLGNFSFNSQCSFHCTDGYQVNGPSKLECLASGIWTNKPPQCLAAQCPPLKIPERGNMTCLHSAKAFQHQSSCSFSCEEGFALVGPEVVQCTASGVWTAPAPVCKAVQCQHLEAPSEGTMDCVHPLTAFAYGSSCKFECQPGYRVRGLDMLRCIDSGHWSAPLPTCEAISCEPLESPVHGSMDCSPSLRAFQYDTNCSFRCAEGFMLRGADIVRCDNLGQWTAPAPVCQALQCQDLPVPNEARVNCSHPFGAFRYQSVCSFTCNEGLLLVGASVLQCLATGNWNSVPPECQAIPCTPLLSPQNGTMTCVQPLGSSSYKSTCQFICDEGYSLSGPERLDCTRSGRWTDSPPMCEAIKCPELFAPEQGSLDCSDTRGEFNVGSTCHFSCDNGFKLEGPNNVECTTSGRWSATPPTCKGIASLPTPGVQCPALTTPGQGTMYCRHHPGTFGFNTTCYFGCNAGFTLIGDSTLSCRPSGQWTAVTPACRAVKCSELHVNKPIAMNCSNLWGNFSYGSICSFHCLEGQLLNGSAQTACQENGHWSTTVPTCQAGPLTIQEALTYFGGAVASTIGLIMGGTLLALLRKRFRQKDDGKCPLNPHSHLGTYGVFTNAAFDPSP
stoichiometry N: 4
